Assay [1] concerns the target T1, myelin oligodendroglial glycoprotein (MOG) peptide on I-Ab (mouse).
T1 peptide: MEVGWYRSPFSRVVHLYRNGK
Kind of assay: in vivo.

The target in assay [2] is T1, myelin oligodendroglial glycoprotein …. Description: cytokine release.

This note sets out measurements from PMC2615687 (2008).

B1: 1MOG23 (TCR)
alpha TRAV12D-2*02 TRAJ18*01 CDR3: CALSDRGSALGRLHF
beta TRBV19*01 TRBJ2-3*01 CDR3: CASSIADSSAETLYF
For B1, in assay [1], the binding result is listed as “recognises”.

B2: 2MOG10 (TCR)
alpha TRAV14-2*01 TRAJ21*01 CDR3: CAAASRIYNVLYF
beta TRBV5*01 TRBJ2-5*01 CDR3: CASNGLGEEDTQYF
For the molecule B2, the binding result in assay [2] was “recognises”.

B3: 1MOG9 (TCR)
alpha TRAV12D-3*01 TRAJ17*01 CDR3: CALSAANSAGNKLTF
beta TRBV13-2*01 TRBJ2-4*01 CDR3: CASGDWGGEDTLYF
In the case of B3, the binding result in assay [2] was “recognises”.
